{"source": "patent US11472855", "about": "“RNA-binding protein” (Panitch Schwarze Belisario & Nadel LLP)", "settings_in_all_cases": "label: Alexa680 at 5' and 3'", "key": {"[1]": {"biological_target": "T1, hPUF_MT(R4→R6_N12S,Q16E, R6_N12S,Q16E) (UniProt Q14671 SEQ:1-349)", "T1 chain": "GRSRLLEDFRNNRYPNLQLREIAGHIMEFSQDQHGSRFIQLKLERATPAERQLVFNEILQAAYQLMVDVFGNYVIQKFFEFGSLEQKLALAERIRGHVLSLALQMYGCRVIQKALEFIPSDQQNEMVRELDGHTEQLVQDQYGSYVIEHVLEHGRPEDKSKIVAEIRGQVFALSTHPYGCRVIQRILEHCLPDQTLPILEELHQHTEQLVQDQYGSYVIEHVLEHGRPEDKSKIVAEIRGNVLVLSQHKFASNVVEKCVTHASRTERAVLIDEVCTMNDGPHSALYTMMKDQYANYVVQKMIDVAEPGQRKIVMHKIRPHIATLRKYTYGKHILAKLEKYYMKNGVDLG", "assay": "EMSA; comparable to or relatively weaker than WT U recognition"}, "[2]": {"biological_target": "T2, hPUF_MT(R5:A_13R)3(R6:G_13Y)3", "T2 chain": "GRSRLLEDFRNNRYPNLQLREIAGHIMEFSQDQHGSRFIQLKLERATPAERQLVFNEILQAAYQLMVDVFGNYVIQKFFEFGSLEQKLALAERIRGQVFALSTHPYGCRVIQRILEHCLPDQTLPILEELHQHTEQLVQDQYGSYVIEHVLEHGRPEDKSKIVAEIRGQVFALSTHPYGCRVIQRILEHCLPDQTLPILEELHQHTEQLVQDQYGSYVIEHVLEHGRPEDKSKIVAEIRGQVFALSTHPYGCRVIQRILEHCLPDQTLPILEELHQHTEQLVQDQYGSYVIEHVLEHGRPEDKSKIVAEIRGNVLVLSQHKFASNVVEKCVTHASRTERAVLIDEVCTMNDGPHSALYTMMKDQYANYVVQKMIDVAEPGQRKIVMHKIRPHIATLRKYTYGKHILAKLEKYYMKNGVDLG", "assay": "EMSA; best of three"}, "[3]": {"biological_target": "T3, hPUF_MT(R3→R5, R4→R5, R5; all C12S,Q16E)", "T3 chain": "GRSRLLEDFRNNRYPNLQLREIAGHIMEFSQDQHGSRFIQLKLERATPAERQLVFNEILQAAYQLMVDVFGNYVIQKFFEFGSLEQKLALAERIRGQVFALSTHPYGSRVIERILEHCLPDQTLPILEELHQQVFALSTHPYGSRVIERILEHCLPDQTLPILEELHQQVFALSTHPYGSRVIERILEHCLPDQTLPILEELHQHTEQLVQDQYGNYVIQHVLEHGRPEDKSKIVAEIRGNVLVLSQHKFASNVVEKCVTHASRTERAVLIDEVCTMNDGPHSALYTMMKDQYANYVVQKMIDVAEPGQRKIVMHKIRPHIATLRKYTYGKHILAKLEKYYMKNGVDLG", "assay": "EMSA; stronger than A-recognising P8"}, "[4]": {"biological_target": "T4, hPUF_MT(R3→R5_C12N, R4→R5_C12N, R5_C12N)", "T4 chain": "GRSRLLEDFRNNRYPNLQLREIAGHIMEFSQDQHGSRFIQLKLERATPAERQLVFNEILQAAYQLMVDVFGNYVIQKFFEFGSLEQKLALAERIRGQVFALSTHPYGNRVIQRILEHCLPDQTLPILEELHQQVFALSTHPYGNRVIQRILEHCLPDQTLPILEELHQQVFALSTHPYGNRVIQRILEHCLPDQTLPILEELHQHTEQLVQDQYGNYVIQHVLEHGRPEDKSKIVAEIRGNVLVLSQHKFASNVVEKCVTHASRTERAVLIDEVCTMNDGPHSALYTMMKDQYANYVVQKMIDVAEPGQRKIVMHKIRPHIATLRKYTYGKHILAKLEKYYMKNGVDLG", "assay": "EMSA; binds only to its target"}, "[5]": {"biological_target": "T5, hPUF_MT(R3→R5, R4→R5, R5; all C12S,Q16R)", "T5 chain": "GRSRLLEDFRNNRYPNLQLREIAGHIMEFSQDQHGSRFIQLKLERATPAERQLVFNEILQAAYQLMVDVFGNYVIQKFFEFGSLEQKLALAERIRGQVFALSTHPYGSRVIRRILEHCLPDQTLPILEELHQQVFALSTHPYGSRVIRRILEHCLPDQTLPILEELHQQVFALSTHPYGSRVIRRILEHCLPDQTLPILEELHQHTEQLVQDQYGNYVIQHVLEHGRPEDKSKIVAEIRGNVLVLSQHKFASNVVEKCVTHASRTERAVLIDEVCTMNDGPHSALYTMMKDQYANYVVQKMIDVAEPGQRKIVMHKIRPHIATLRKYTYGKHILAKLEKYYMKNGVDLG", "assay": "EMSA; binds only to its target"}, "[6]": {"biological_target": "T6, hPUF_MT(R5:A_13R)3(R6:C_13Y)3", "T6 chain": "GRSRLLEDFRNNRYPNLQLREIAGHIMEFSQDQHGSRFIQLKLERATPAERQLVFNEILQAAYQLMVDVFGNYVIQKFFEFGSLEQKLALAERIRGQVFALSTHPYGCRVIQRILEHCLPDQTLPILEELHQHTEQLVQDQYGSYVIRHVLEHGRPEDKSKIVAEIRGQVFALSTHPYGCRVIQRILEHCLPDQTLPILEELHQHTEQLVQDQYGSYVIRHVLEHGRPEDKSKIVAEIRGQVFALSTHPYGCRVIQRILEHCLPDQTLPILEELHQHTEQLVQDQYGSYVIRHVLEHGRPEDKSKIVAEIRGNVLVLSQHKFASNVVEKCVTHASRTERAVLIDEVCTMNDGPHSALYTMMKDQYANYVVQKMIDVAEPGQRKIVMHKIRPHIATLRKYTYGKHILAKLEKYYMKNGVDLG", "assay": "EMSA; best of three"}, "[7]": {"biological_target": "T5, hPUF_MT(R3→R5, R4→R5, R5; all C12S,Q16R)", "assay": "EMSA; stronger than A-recognising P8"}, "[8]": {"biological_target": "T3, hPUF_MT(R3→R5, R4→R5, R5; all C12S,Q16E)", "assay": "EMSA; binds only to its target"}, "[9]": {"biological_target": "T7, hPUF_MT(R4→R6_N12C, R6_N12C) (UniProt Q14671 SEQ:1-349)", "T7 chain": "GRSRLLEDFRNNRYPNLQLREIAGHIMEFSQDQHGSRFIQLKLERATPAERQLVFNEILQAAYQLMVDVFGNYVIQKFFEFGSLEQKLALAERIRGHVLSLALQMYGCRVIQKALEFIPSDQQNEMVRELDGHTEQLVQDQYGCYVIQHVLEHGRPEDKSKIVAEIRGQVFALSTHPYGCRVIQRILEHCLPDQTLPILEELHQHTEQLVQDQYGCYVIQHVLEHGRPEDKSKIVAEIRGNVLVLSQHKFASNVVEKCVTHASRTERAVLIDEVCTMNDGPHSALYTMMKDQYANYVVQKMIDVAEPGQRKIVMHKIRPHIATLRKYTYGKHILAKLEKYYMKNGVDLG", "assay": "EMSA"}, "[10]": {"biological_target": "T8, hPUF_MT(R3→R5, R4→R5_R13H, R5_R13H)", "T8 chain": "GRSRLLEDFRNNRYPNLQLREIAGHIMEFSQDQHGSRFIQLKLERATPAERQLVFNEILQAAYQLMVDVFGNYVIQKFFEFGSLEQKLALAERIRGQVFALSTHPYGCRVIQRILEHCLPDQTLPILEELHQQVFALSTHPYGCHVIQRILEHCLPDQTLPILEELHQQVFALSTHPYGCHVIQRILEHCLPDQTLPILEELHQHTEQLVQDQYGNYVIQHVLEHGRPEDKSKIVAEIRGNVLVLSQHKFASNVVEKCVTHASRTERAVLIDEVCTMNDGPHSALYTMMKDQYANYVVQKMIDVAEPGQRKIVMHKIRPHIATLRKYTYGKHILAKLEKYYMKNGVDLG", "assay": "EMSA; H=Y>R>F=W>K; Example 5-2 states a different order"}, "[11]": {"biological_target": "T9, hPUF_MT(R3→R5, R4→R5_R13Y, R5_R13Y)", "T9 chain": "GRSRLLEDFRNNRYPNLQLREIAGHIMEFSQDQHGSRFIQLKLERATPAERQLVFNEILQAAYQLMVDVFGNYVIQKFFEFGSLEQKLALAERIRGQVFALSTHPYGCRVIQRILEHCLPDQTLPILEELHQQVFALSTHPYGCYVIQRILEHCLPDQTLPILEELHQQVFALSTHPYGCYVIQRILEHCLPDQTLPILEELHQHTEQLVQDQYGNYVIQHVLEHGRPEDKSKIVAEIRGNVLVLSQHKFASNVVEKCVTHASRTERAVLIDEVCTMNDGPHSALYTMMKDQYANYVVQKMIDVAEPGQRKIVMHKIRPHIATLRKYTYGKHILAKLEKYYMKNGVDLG", "assay": "EMSA; H=Y>R>F=W>K"}, "hPUF_MT(R3→R5, R4→R5)": {"biological_target": "T10, hPUF_MT(R3→R5, R4→R5)", "T10 chain": "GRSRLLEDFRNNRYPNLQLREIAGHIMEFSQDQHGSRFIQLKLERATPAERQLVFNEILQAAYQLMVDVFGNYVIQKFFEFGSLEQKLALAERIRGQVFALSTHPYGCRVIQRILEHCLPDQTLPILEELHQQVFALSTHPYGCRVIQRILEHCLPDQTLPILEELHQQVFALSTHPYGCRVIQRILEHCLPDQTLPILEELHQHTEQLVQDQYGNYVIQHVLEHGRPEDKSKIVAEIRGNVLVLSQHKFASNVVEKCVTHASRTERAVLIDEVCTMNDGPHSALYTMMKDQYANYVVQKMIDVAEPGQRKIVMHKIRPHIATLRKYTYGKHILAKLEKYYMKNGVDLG", "assay": "EMSA; A-A stacking: H=Y>R>F=W>K"}, "[12]": {"biological_target": "T4, hPUF_MT(R3→R5_C12N, R4→R5_C12N, R5_C12N)", "assay": "EMSA; strongest of the four"}, "[13]": {"biological_target": "T11, hPUF_MT(R5:G_13R)3(R6:U_13Y)3", "T11 chain": "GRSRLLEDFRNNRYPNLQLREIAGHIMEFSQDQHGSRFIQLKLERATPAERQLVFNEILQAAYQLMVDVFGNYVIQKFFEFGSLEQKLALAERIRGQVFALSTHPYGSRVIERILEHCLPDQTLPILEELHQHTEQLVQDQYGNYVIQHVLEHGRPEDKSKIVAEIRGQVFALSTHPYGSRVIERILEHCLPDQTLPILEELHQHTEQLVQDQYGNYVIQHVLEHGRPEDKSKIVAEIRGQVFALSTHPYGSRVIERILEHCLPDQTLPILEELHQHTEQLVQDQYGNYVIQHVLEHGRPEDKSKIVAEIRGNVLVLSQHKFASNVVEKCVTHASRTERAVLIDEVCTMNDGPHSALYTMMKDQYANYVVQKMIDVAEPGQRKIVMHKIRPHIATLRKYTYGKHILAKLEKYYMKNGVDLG", "assay": "EMSA"}, "[14]": {"biological_target": "T12, hPUF_MT(R4→R6_N12S,Q16R, R6_N12S,Q16R) (UniProt Q14671 SEQ:1-349)", "T12 chain": "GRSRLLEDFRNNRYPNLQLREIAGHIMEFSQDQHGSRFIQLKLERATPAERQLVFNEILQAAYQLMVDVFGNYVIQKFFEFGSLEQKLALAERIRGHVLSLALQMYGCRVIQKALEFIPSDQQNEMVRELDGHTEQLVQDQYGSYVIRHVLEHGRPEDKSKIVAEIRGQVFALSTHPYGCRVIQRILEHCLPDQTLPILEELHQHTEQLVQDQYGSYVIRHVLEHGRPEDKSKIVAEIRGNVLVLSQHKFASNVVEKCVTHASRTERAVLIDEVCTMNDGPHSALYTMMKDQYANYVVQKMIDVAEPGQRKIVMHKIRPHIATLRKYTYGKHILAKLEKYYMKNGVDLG", "assay": "EMSA; comparable to or relatively weaker than WT U recognition"}}}
{"binder": "CCAGAAUUGGAGAUAUUCG (ssRNA)", "note": "[OTS-1978]", "values": [{"measurement": "binding result", "setting": "[1]", "result": "binds"}]}
{"binder": "CCAGAAUUGGAGAGAUAUUCG (ssRNA)", "note": "[OTS-2008]", "values": [{"measurement": "binding result", "setting": "[2]", "result": "binds"}]}
{"binder": "CCAGAAUUGUGGGUAUUCG (ssRNA)", "note": "[OTS-1842]", "values": [{"measurement": "binding result", "setting": "[3]", "result": "binds"}, {"measurement": "binding result", "setting": "[4]", "result": "no binding"}, {"measurement": "binding result", "setting": "[5]", "result": "no binding"}]}
{"binder": "CCAGAAUUGCACACAUAUUCG (ssRNA)", "note": "[OTS-2004 (Example 5-4)]", "values": [{"measurement": "binding result", "setting": "[6]", "result": "binds"}]}
{"binder": "CCAGAAUUGUCCCUAUUCG (ssRNA)", "note": "[OTS-1843]", "values": [{"measurement": "binding result", "setting": "[7]", "result": "binds"}, {"measurement": "binding result", "setting": "[4]", "result": "no binding"}, {"measurement": "binding result", "setting": "[8]", "result": "no binding"}]}
{"binder": "CCAGAAUUGAAAAUAUUCG (ssRNA)", "note": "[OTS-1819]", "values": [{"measurement": "binding signal", "setting": "[9]", "result": "~0.01 fold of U-recognising type"}]}
{"binder": "CCAGAAUUGUAAAUAUUCG (ssRNA)", "note": "[OTS-1759]", "values": [{"measurement": "binding result", "setting": "[10]", "result": "binds"}, {"measurement": "binding result", "setting": "[11]", "result": "binds"}, {"measurement": "binding result", "setting": "hPUF_MT(R3→R5, R4→R5)", "result": "binds"}]}
{"binder": "CCAGAAUUGUUUUUAUUCG (ssRNA)", "note": "[OTS-1841]", "values": [{"measurement": "binding result", "setting": "[12]", "result": "binds"}, {"measurement": "binding result", "setting": "[5]", "result": "no binding"}, {"measurement": "binding result", "setting": "[8]", "result": "no binding"}]}
{"binder": "CCAGAAUUGUGUGUGUAUUCG (ssRNA)", "note": "[OTS-2004 (Example 5-6)]", "values": [{"measurement": "binding result", "setting": "[13]", "result": "binds"}]}
{"binder": "CCAGAAUUGCACAUAUUCG (ssRNA)", "note": "[OTS-1979]", "values": [{"measurement": "binding result", "setting": "[14]", "result": "binds"}]}
